For one substance, stoichiometry N results are on record in PMC11601465.

Test [1] addresses Nyl50. The experiment in a line: AUC.
Test [2] deals with Nyl50. Put plainly: AUC. This is another data set of the same source.
The target of test [3] is Nyl50. The experiment in a line: SEC. (In general: In gel filtration, larger molecules generally elute earlier.)

With Nyl50 (enzyme), the stoichiometry N (as a rule, a count of units in the complex or per binding partner) in test [1] came to 2; in test [2] it was 4; in test [3] it was 2.
